{"source": "patent US20170258870", "system": "Helix 5 TAT peptide"}
{"substance": "recombinant GC mutant N370S", "values": [{"measurement": "GC enzyme activity (4-MU substrate)", "value": "the helix 5 TAT-peptide led to a four-fold increase in the activity of the N370S mutant"}]}
